Test [1] addresses receptor proteins in midgut brush border membrane vesicles (BBMV's) from fall armyworm (FAW; Spodoptera frugiperda) larvae (Spodoptera frugiperda). The test can be described thus: homologous competition: unlabeled Cry1Ea against 125I Cry1Ea on FAW BBMV's, FIG. 3.
Test [2] has the same target. The experiment in a line: homologous competition: unlabeled Cry1Ea against 0.5 nM 125I Cry1Ea on FAW BBMV's (150 ug/ml), FIG. 1.
Test [3] shares this target. The experiment in a line: heterologous competition: 1,000 nM unlabeled Cry1Da against 125I Cry1Ea on FAW BBMV's, FIG. 4.

The source of these data is patent US20140109263A1.

Broadly, the IC50 is the concentration that gives 50% inhibition. Low readings indicate greater potency, high ones weaker potency. As to “Cry1Ea protein, trypsin-cleaved activated form (protease-processed Cry1Ea) (from UniProt Q57458 1-612)”, the IC50 in test [1] and in test [2] was 1 nM in each case. Turning to “Cry1Da protein, trypsinized (protease-processed Cry1Da) (from UniProt P19415 28-603)”, in test [3], the percent displacement of ^125I Cry1Ea was determined as 40%.
